Data taken from article PMC9482650, “Quantitative fragmentomics allow affinity mapping of interactomes” (Nature Communications, 2022).

What was measured:
Test in all cases: holdup assay
Parameters in all cases: key: below the threshold = too weak to quantify, mostly under pKd 3.1 to 4
Settings in all cases: plain residues with an end cap or a label only (N-terminal biotin on a linker: ttds)
DLG3_1, Q92796 = molecular target: T1, DLG3_1, Q92796
T1 sequence (Q92796 125-227, limits assumed, looked up): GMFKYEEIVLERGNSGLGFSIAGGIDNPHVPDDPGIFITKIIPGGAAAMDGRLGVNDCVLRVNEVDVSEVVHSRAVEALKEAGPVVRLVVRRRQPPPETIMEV

DLG3_2, Q92796 = molecular target: T2, DLG3_2, Q92796
T2 sequence (Q92796 221-321, limits assumed, looked up): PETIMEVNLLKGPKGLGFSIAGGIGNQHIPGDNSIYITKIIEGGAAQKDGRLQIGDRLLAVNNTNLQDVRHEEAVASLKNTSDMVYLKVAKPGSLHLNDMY

DLG4_1, P78352 = molecular target: DLG4_1, P78352
FRMPD2_2, Q68DX3 = molecular target: FRMPD2_2, Q68DX3
FRMPD2_3, Q68DX3 = molecular target: FRMPD2_3, Q68DX3
GRIP1_2, Q9Y3R0 = molecular target: T3, GRIP1_2, Q9Y3R0
T3 sequence (Q9Y3R0 145-248, limits assumed, looked up): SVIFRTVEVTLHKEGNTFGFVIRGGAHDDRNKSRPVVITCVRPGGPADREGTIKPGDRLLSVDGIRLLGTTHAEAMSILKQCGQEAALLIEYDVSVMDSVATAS

GRIP1_7, Q9Y3R0 = molecular target: T4, GRIP1_7, Q9Y3R0
T4 sequence (Q9Y3R0 999-1096, limits assumed, looked up): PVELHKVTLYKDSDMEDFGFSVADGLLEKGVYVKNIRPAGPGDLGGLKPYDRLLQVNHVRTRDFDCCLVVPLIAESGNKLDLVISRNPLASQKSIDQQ

Inadl_4, Q8NI35 = molecular target: Inadl_4, Q8NI35
Inadl_5, Q8NI35 = molecular target: Inadl_5, Q8NI35
LIN7A, O14910 = molecular target: T5, LIN7A, O14910
T5 sequence (O14910 103-200, limits assumed, looked up): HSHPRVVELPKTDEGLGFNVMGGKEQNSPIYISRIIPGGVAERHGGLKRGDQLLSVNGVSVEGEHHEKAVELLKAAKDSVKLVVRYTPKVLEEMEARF

LNX1_3, Q8TBB1 = molecular target: LNX1_3, Q8TBB1
LRRC7, Q96NW7 = molecular target: T6, LRRC7, Q96NW7
T6 sequence (Q96NW7 1440-1537, limits assumed, looked up): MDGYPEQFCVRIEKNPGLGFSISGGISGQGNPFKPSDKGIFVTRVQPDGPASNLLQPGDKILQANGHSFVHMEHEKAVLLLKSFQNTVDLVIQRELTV

MAGI1_1, Q96QZ7 = molecular target: MAGI1_1, Q96QZ7
MAGI1_2, Q96QZ7 = molecular target: MAGI1_2, Q96QZ7
MAGI2_4, Q86UL8 = molecular target: MAGI2_4, Q86UL8
MAGI2_6, Q86UL8 = molecular target: MAGI2_6, Q86UL8
MAGI3_2, Q5TCQ9 = molecular target: MAGI3_2, Q5TCQ9
MAST1, Q9Y2H9 = molecular target: MAST1, Q9Y2H9
MPDZ_10, O75970 = molecular target: T7, MPDZ_10, O75970
T7 sequence (O75970 1624-1722, limits assumed, looked up): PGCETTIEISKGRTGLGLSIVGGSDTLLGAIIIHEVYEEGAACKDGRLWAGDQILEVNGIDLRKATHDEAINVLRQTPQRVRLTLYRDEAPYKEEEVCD

MPP2, Q14168 = molecular target: T8, MPP2, Q14168
T8 sequence (Q14168 180-250, limits assumed, looked up): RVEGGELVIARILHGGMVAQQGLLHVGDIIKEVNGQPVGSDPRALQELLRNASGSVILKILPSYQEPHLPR

NHERF4_4, Q86UT5 = molecular target: NHERF4_4, Q86UT5
PDLIM1, O00151 = molecular target: PDLIM1, O00151
RADIL, Q96JH8 = molecular target: T9, RADIL, Q96JH8
T9 sequence (Q96JH8 971-1071, limits assumed, looked up): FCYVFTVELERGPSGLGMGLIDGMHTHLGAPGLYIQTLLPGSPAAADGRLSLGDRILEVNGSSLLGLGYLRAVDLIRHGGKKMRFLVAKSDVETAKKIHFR

SCRIB_3, Q14160 = molecular target: SCRIB_3, Q14160
SIPA1L2, Q9P2F8 = molecular target: T10, SIPA1L2, Q9P2F8
T10 sequence (Q9P2F8 945-1036, limits assumed, looked up): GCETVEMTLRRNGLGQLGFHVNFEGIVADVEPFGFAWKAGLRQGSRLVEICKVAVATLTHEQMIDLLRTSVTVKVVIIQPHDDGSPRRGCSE

TJP1_2, Q07157 = molecular target: TJP1_2, Q07157
TJP2_1, Q9UDY2 = molecular target: TJP2_1, Q9UDY2
Sequence of TJP2_1, Q9UDY2 (Q9UDY2 24-128): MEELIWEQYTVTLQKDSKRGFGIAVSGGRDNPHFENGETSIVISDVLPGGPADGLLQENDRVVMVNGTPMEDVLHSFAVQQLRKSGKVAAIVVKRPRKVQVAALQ

Sequence of MAGI3_2, Q5TCQ9 (Q5TCQ9 398-503): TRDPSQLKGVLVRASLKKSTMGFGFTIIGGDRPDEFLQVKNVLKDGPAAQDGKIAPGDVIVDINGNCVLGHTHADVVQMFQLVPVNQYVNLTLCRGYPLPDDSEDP
Sequence of TJP1_2, Q07157 (Q07157 181-274): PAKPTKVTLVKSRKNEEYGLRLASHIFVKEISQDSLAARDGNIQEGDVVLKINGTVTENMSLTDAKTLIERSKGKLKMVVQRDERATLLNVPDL
Sequence of FRMPD2_3, Q68DX3 (Q68DX3 1073-1166): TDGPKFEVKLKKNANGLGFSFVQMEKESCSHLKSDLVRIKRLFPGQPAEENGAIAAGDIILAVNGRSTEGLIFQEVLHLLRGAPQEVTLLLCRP
Sequence of SCRIB_3, Q14160 (Q14160 999-1103): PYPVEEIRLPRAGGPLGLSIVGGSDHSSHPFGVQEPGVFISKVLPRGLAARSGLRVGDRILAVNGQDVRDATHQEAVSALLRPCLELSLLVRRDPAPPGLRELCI
Sequence of MAGI1_1, Q96QZ7 (Q96QZ7 1-106): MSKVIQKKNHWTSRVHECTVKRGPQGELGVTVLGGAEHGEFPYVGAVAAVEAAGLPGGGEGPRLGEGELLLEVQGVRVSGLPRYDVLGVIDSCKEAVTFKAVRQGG
Sequence of FRMPD2_2, Q68DX3 (Q68DX3 944-1038): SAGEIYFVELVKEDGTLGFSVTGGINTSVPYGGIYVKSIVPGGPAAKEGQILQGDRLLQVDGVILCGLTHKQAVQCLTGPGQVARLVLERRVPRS
Sequence of MAST1, Q9Y2H9 (Q9Y2H9 962-1065): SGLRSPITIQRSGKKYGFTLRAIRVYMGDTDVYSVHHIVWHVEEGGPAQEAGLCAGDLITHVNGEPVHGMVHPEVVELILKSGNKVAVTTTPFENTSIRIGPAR
Sequence of DLG4_1, P78352 (P78352 62-152): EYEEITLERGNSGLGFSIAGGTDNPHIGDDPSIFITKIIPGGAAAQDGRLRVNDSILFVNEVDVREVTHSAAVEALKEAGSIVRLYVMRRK
Sequence of MAGI2_4, Q86UL8 (Q86UL8 772-865): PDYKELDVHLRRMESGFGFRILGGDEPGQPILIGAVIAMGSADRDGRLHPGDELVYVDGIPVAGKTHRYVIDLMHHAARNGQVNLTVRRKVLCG
Sequence of Inadl_5, Q8NI35 (Q8NI35 673-780): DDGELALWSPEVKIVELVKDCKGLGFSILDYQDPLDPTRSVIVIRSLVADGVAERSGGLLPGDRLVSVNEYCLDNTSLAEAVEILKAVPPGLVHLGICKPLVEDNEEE
Sequence of MAGI1_2, Q96QZ7 (Q96QZ7 456-580): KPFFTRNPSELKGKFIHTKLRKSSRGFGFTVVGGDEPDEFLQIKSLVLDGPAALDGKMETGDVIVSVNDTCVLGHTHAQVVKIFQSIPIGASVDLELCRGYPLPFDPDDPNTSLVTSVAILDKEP
Sequence of Inadl_4, Q8NI35 (Q8NI35 547-651): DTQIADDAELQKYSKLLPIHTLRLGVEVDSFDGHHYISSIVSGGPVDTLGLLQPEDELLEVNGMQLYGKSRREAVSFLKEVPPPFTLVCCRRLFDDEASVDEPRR
Sequence of MAGI2_6, Q86UL8 (Q86UL8 1141-1229): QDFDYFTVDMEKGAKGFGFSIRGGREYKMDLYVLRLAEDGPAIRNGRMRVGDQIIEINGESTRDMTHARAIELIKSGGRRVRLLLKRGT
Sequence of NHERF4_4, Q86UT5 (Q86UT5 464-550): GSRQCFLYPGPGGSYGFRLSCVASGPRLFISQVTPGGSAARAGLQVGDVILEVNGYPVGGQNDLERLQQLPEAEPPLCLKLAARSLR
Sequence of PDLIM1, O00151 (O00151 1-87): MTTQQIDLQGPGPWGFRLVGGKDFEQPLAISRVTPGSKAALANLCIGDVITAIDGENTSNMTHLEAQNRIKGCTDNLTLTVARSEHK
Sequence of LNX1_3, Q8TBB1 (Q8TBB1 500-596): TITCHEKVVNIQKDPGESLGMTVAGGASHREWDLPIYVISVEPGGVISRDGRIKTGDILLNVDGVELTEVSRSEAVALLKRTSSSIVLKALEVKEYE

| Binder | pKd (DLG3_1, Q92796) | pKd (DLG3_2, Q92796) | pKd (DLG4_1, P78352) | pKd (FRMPD2_2, Q68DX3) | pKd (FRMPD2_3, Q68DX3) | pKd (GRIP1_2, Q9Y3R0) | pKd (GRIP1_7, Q9Y3R0) | pKd (Inadl_4, Q8NI35) | pKd (Inadl_5, Q8NI35) | pKd (LIN7A, O14910) | pKd (LNX1_3, Q8TBB1) | pKd (LRRC7, Q96NW7) | pKd (MAGI1_1, Q96QZ7) | pKd (MAGI1_2, Q96QZ7) | pKd (MAGI2_4, Q86UL8) | pKd (MAGI2_6, Q86UL8) | pKd (MAGI3_2, Q5TCQ9) | pKd (MAST1, Q9Y2H9) | pKd (MPDZ_10, O75970) | pKd (MPP2, Q14168) | further results |
| --- | --- | --- | --- | --- | --- | --- | --- | --- | --- | --- | --- | --- | --- | --- | --- | --- | --- | --- | --- | --- | --- |
| FVETQHQTQV [FAT3, Q8TDW7] | 3.85 | 4.71 | 4.36 | 3.97 | below the threshold | 3.51 | below the threshold | below the threshold | below the threshold | below the threshold | below the threshold | below the threshold | below the threshold | 3.93 | 3.91 | 3.77 | 4.57 | 4.8 | below the threshold | below the threshold | pKd (NHERF4_4, Q86UT5): below the threshold; pKd (PDLIM1, O00151): below the threshold; pKd (RADIL, Q96JH8): 4.27; pKd (SCRIB_3, Q14160): 4.02; pKd (SIPA1L2, Q9P2F8): below the threshold; pKd (TJP1_2, Q07157): below the threshold; pKd (TJP2_1, Q9UDY2): below the threshold |
| SRSRRRETAL [HPV33-E6, P06427] | 3.79 | 4.61 | 4.57 | below the threshold | below the threshold | below the threshold | below the threshold | below the threshold | below the threshold | below the threshold | below the threshold | 3.68 | below the threshold | 5.67 | below the threshold | below the threshold | 5.39 | 4.78 | below the threshold | below the threshold | pKd (NHERF4_4, Q86UT5): below the threshold; pKd (PDLIM1, O00151): below the threshold; pKd (RADIL, Q96JH8): below the threshold; pKd (SCRIB_3, Q14160): 5.3; pKd (SIPA1L2, Q9P2F8): below the threshold; pKd (TJP1_2, Q07157): below the threshold; pKd (TJP2_1, Q9UDY2): 4.01 |
